Experimental findings from US20220204644A1 (MAB DISCOVERY, published 2022) are described below.

Experiment [1] deals with T1, HER2 sub-domain I, recombinant (human, UniProt P04626 23-217, limits assumed).
T1 construct: domain: sub-domain I; also called HER2 domain I
Briefly: ELISA, coated HER2 domain. The protocol:
(§1) Recombinant Her2 domains (full length ECD purchased from Biozol, ECD domains produced at Mab Discovery), were coated on a 384-well Nunc™ MaxiSorp™ plate at optimized concentrations ([…]) in PBS for one hour at room temperature. After washing three times with wash buffer (PBS, 0.1% Tween), plates were blocked with PBS, 2% BSA, 0.05% Tween for one hour at room temperature. Plates were washed again three time with wash buffer and antibodies at a concentration of 10 μg/ml in PBS, 0.5% BSA, 0.05% Tween were incubated for one hour at room temperature. After 3 washes in wash buffer, wells were incubated with 12.5 μl of a 1:5000 dilution of anti-human peroxidase-linked, species specific F(ab)2 Fragment from goat (AbD Serotec) in ELISA buffer for one hour at room temperature. Wells were washed six times with wash buffer and 15 μl/well TMB substrate solution (Invitrogen) were added. After 10 minutes at room temperature 15 μl Stop solution (1M HCl) were added per well and absorbance at 450 and 620 nm wavelength was measured using a Tecan M1000 microplate reader.
A general note: An ELISA detects its analyte on a solid surface through an enzyme-linked reagent.

Experiment [2] has as its target T2, HER2 full-length extracellular domain (ECD), recombinant (human, UniProt P04626 23-652).
T2 construct: extracellular domain; also called full length ECD; HER2 full-length ECD
Briefly: ELISA, coated HER2 ECD, antibody at 10 µg/ml. On the procedure:
as §1

B1: B100 anti-HER2 monoclonal antibody (antibody, V domains shown)
VH: QSVEESGGRLVTPGTPLTLTCTVSGFSLSNYGVSWVRQAPGKGLEYIGIISGSGFTYYASWAKGRFTISKTSTTVDLKITSPTTKDTATYFCARGVVPGYNAGGLWGQGTLVTVSS
VL: DIVMTQTPASVSEPVGGTVTIKCQASQGISTALAWYQQKPGQRPKLLIYSASTLASGVSSRFKGSGSGTQFTLTISDLECADAATYYCQCTAAGSVSVGAFGGGTEVVVN
notes: It was detected in the ELISA with an anti-human F(ab)2 conjugate; also called B100 antibody
Turning to B1, the binding result is on record as “no binding (tested: 10 µg/ml)” in experiment [1] and “binds” in experiment [2].
